Test results from publication PMC4007472, “Evidence for Steric Regulation of Fibrinogen Binding to Staphylococcus aureus Fibronectin-binding Protein A (FnBPA)*” (The Journal of Biological Chemistry, 2014).

B2: AF1 (rFnBPA(189–550)) (domain or fragment)
chain: AKVETGTDVTSKVTVEIGSIEGHNNTNKVEPHAGQRAVLKYKLKFENGLHQGDYFDFTLSNNVNTHGVSTARKVPEIKNGSVVMATGEVLEGGKIRYTFTNDIEDKVDVTAELEINLFIDPKTVQTNGNQTITSTLNEEQTSKELDVKYKDGIGNYYANLNGSIETFNKANNRFSHVAFIKPNNGKTTSVTVTGTLMKGSNQNGNQPKVRIFEYLGNNEDIAKSVYANTTDTSKFKEVTSNMSGNLNLQNNGSYSLNIENLDKTYVVHYDGEYLNGTDEVDFRTQMVGHPEQLYKYYYDRGYTLTWDNGLVLYSNKANGNEKNGPIIQNNKFEYKEDTIKETLTGQYDKNLVTTVEEEYDSS
notes: Cloned in pET-YSBLIC-3C; not shown: His6, N-terminal, cleaved
B4: NTD (30-kDa N-terminal proteolytic fragment of fibronectin) (domain or fragment)
chain: not shown
modifications: Limits not printed: conventional N-terminal 29-30 kDa fragment, mature residues 1-259 (1-5F1). N-terminal pyroglutamate, intradomain disulfides

Tests used:
Conditions in all cases: both partners purified
[1] = target: B2; test: SPR; FgD immobilised by amine coupling, rFnBPA constructs as analytes in 2-fold dilutions; equilibrium (steady-state) analysis; 25 °C, HBS-P+ (10 mM HEPES pH 7.4, 150 mM NaCl, 0.05% polysorbate 20)
[2] = target: T1, rFnBPA(189–511) (S. aureus 8325-4, UniProt P14738 189-511); test: as above
T1 construct: Cloned in pET-YSBLIC-3C; also called N2N3 domains including the latch strand; not shown: His6, N-terminal, cleaved
T1 sequence: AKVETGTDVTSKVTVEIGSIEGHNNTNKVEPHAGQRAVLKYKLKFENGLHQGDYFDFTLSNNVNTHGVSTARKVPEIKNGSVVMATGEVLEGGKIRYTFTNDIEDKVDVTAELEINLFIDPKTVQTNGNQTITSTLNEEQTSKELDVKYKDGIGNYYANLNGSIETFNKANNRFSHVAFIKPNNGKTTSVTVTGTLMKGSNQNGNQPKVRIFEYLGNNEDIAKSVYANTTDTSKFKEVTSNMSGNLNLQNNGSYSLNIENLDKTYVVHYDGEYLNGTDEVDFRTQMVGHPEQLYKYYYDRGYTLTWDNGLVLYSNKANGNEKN

[3] = target: T2, rFnBPA(189–505) (S. aureus 8325-4, UniProt P14738 189-505); test: as above
T2 construct: Cloned in pET-YSBLIC-3C; also called N2N3 (without latch); not shown: His6, N-terminal, cleaved
T2 sequence: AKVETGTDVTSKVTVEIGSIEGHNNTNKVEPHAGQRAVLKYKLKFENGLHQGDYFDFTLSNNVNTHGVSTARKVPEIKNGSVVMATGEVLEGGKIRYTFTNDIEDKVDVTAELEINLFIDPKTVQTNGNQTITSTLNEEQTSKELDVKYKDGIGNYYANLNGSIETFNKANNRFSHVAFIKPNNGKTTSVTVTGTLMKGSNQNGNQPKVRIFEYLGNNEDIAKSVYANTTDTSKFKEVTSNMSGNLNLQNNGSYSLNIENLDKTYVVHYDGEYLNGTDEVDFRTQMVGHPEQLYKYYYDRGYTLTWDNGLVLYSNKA

[4] = target: Human plasma fibronectin (Fn) (human, Plasma form by convention: no EDB or EDA, disulfide-linked heterodimer of a V+ chain (V89 chosen) and a V0 chain; the real material is a splice mixture. N-terminal pyroglutamate, glycosylated); test: SPR; AF1 immobilised by amine coupling, Fn (5.2–0.01 nM) or NTD as analyte; kinetic analysis, Langmuir 1:1 fit; 25 °C, HBS-P+
[5] = target: T3, Intact human plasma fibrinogen (Fg) (human, UniProt P02671-2 20-644; P02675 31-491; P02679-2 27-437); test: ITC; MicroCal VP-ITC, PBS pH 7.4, 25 °C, single-site binding model; AF1 injected into NTD; AF1 with Fg
T3 construct: Fibrinogen Aα chain, human, from plasma; Fibrinogen Bβ chain, human, from plasma; Fibrinogen γ chain, human, from plasma; 341 kDa dimer of heterotrimers Aα, Bβ, γ; source: bought: Calbiochem-Merck-Millipore (human plasma, product no. 341576); in human plasma for the pulldown; copies: 2 + 2 + 2
T3 sequence (looked up) 1: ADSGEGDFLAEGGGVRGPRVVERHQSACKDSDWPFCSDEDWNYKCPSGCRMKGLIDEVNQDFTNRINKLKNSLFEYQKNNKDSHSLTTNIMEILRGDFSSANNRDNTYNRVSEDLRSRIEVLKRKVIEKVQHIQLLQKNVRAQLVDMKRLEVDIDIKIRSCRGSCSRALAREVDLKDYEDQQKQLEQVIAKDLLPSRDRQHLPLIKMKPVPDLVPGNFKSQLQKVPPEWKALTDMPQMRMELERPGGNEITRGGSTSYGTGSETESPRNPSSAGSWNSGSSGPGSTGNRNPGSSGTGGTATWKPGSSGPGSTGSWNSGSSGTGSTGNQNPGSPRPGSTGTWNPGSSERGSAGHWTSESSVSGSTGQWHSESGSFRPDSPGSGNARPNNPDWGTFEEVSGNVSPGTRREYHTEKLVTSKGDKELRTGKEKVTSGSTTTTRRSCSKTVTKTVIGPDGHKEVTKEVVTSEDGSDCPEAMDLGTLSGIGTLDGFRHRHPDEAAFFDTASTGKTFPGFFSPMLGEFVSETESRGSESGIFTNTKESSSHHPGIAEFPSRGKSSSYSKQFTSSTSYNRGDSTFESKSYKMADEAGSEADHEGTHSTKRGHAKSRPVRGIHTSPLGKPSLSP
T3 sequence (looked up) 2: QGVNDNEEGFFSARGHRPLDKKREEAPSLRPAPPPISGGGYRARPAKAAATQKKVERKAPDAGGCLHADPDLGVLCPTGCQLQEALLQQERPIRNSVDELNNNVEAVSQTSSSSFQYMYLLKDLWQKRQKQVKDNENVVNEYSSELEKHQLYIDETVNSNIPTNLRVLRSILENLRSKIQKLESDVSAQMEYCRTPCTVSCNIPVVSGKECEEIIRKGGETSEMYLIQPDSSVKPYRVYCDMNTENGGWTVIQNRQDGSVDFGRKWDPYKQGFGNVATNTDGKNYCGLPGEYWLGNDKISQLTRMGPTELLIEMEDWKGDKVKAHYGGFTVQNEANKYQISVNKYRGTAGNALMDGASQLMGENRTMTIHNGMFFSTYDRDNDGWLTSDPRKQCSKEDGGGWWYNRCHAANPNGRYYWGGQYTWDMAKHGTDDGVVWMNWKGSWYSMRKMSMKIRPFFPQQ
T3 sequence (looked up) 3: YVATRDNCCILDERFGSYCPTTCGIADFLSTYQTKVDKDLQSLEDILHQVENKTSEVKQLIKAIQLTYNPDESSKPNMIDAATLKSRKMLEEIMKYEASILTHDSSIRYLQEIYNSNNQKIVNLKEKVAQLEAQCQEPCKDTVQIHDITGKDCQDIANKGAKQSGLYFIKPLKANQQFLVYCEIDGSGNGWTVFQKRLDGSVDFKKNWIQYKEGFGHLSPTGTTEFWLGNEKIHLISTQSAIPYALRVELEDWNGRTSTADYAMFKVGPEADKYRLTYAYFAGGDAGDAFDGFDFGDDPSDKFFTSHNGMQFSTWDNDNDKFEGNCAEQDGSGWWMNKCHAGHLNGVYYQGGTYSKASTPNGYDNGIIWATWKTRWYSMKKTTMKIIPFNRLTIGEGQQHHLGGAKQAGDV

[6] = target: B4; test: as above
[7] = target: B2; test: SPR; NTD immobilised on a C1 chip; 0.5 μM AF1 + 0.5 μM Fg injected together, without or with 50 μM FgγC; 25 °C, HBS-P+
[8] = target: T2, rFnBPA(189–505); test: crystal structure; rFnBPA(189–505) 25 mg/ml with a 20-fold molar excess of FgγC; 1.83 Å
[9] = target: B2; test: SPR; AF1 immobilised by amine coupling, Fn (5.2–0.01 nM) or NTD as analyte; kinetic analysis, Langmuir 1:1 fit; 25 °C, HBS-P+
[10] = target: B2; test: ITC; MicroCal VP-ITC, PBS pH 7.4, 25 °C, single-site binding model; AF1 injected into NTD; AF1 with Fg

B1: FgD (monomeric ~85-kDa proteolytic fragment of Fg) (domain or fragment)
chain 1: DNTYNRVSEDLRSRIEVLKRKVIEKVQHIQLLQKNVRAQLVDMKRLEVDIDIKIRSCRGSCSRALAREVDLKDYEDQQKQLEQVIAKDLLPSR
chain 2: DNENVVNEYSSELEKHQLYIDETVNSNIPTNLRVLRSILENLRSKIQKLESDVSAQMEYCRTPCTVSCNIPVVSGKECEEIIRKGGETSEMYLIQPDSSVKPYRVYCDMNTENGGWTVIQNRQDGSVDFGRKWDPYKQGFGNVATNTDGKNYCGLPGEYWLGNDKISQLTRMGPTELLIEMEDWKGDKVKAHYGGFTVQNEANKYQISVNKYRGTAGNALMDGASQLMGENRTMTIHNGMFFSTYDRDNDGWLTSDPRKQCSKEDGGGWWYNRCHAANPNGRYYWGGQYTWDMAKHGTDDGVVWMNWKGSWYSMRKMSMKIRPFFPQQ
chain 3: AIQLTYNPDESSKPNMIDAATLKSRKMLEEIMKYEASILTHDSSIRYLQEIYNSNNQKIVNLKEKVAQLEAQCQEPCKDTVQIHDITGKDCQDIANKGAKQSGLYFIKPLKANQQFLVYCEIDGSGNGWTVFQKRLDGSVDFKKNWIQYKEGFGHLSPTGTTEFWLGNEKIHLISTQSAIPYALRVELEDWNGRTSTADYAMFKVGPEADKYRLTYAYFAGGDAGDAFDGFDFGDDPSDKFFTSHNGMQFSTWDNDNDKFEGNCAEQDGSGWWMNKCHAGHLNGVYYQGGTYSKASTPNGYDNGIIWATWKTRWYSMKKTTMKIIPFNRLTIGEGQQHHLGGAKQAGDV
modifications: Limits not printed: conventional plasmin fragment D1 (mature Aalpha 105-197, Bbeta 134-461, gamma 63-411), ends may be ragged; gammaA C-terminus (AGDV) used because the UniProt canonical entry is …
Work on B1 yielded a Kd [1] of 1500 nM, a Kd [2] of 1500 nM and a Kd [3] of 3700 nM.

In the case of B2, the Kd [4] is reported as 0.359 nM, the Kd [5] is reported as 1100 nM and the dH [5] is reported as -6.1 kcal/mol. The “stoichiometry N” value [5] was 2.11, the dH [6] was -35.8 kcal/mol and the “stoichiometry N” value [6] was 0.89.

B3: FgγC (synthetic peptide, 17 C-terminal residues of the Fg γA chain) (peptide)
peptide: Ac-GEGQQHHLGGAKQAGDV-NH2
notes: Fibrinogen γA chain, human, the 17 C-terminal residues; also called Fg peptide; source: synthetic peptide (Severn Biotech Ltd.)
B3: binds [7]; binds [8].

B4 was tested, and the Kd [9] was 0.393 nM and the Kd [10] was 0.7 nM.
